Measurements taken from patent US20180155451A1 (published 2018).
Numbering of substitutions follows the chain as printed. In names and notes the source's numbering stands.

B1: GpH7-A5/GpH7-B3 variant K326_02A/GpL16-k0 (antibody, human IgG1, kappa)
heavy 1: not shown
heavy 2: not shown
light: DIVMTQSPLSLPVTPGEPASISCQASESLVHSNRNTYLHWYLQKPGQSPQLLIYKVSNRFSGVPDRFSGSGSGTDFTLKISRVEAEDVGVYYCSQNTHVPPTFGQGTKVEIERTVAAPSVFIFPPSDEQLKSGTASVVCLLNNFYPREAKVQWKVDNALQSGNSQESVTEQDSKDSTYSLSSTLTLSKADYEKHKVYACEVTHQGLSSPVTKSFNRGEC
notes: heterodimerized IgG1; alteration in the GpH7-B3 H chain only; also called He Ab
B2: GpH7-A5/GpH7-B3 variant H268_10E/GpL16-k0 (antibody, human IgG1, kappa)
heavy 1: not shown
heavy 2: not shown
light: B1 light
notes: as for B1
B3: H240-Kn061 (Y235A)/H240-Hl071/L73-k0 (antibody, human IgG1, kappa)
heavy 1: QDQLVQSGAEVKKPGASVKVSCKASGFNIKDTYIQWVRQAPGQGLEWMGRIDPLRKQTKYREKFEGRVTITADTSTNTAYMELSSLRSEDTAVYYCVRSGREFDYWGQGTLVTVSSASTKGPSVFPLAPSSKSTSGGTAALGCLVKDYFPEPVTVSWNSGALTSGVHTFPAVLQSSGLYSLSSVVTVPSSSLGTQTYICNVNHKPSNTKVDKKVEPKSCDKTHTCPPCPAPEYAWGPSVFLFPPKPKDTLMISRTPEVTCVVVDVSDEDPEVKFNWYVDGVEVHNAKTKPREEQYNATYRVVSVLTVLHQDWLNGKEYKCKVSNKALPAPIEKTISKAKGQPREPQVCTLPPSRDELTKNQVSLWCLVKGFYPSDIAVEWESNGQPENNYKTTPPVLDSDGSFFLYSKLTVDKSRWQQGNVFSCSVMHEALHNHYTQKSLSLSP
heavy 2: QDQLVQSGAEVKKPGASVKVSCKASGFNIKDTYIQWVRQAPGQGLEWMGRIDPLRKQTKYREKFEGRVTITADTSTNTAYMELSSLRSEDTAVYYCVRSGREFDYWGQGTLVTVSSASTKGPSVFPLAPSSKSTSGGTAALGCLVKDYFPEPVTVSWNSGALTSGVHTFPAVLQSSGLYSLSSVVTVPSSSLGTQTYICNVNHKPSNTKVDKKVEPKSCDKTHTCPPCPAPELLGGPSVFLFPPKPKDTLMISRTPEVTCVVVDVSHEDPEVKFNWYVDGVEVHNAKTKPREEQYNSTYRVVSVLTVLHQDWLNGKEYKCKVSNDALPMPIEETISKAKGQPREPQVYTLPPSRCELTKNQVSLSCAVKGFYPSDIAVEWESNGQPENNYKTTPPVLDSDGSFFLVSKLTVDKSRWQQGNVFSCSVMHEALHNHYTQKSLSLSP
light: DIQMTQSPSSLSASVGDRVTITCRASQDIHKYIAWYQQKPGQAPRLLIQYTSTLQPGVPSRFSGSGSGTDYTFTISSLQPEDIATYYCLQYEQLRTFGGGTKVEIKRTVAAPSVFIFPPSDEQLKSGTASVVCLLNNFYPREAKVQWKVDNALQSGNSQESVTEQDSKDSTYSLSSTLTLSKADYEKHKVYACEVTHQGLSSPVTKSFNRGEC
B4: H240-Kn061 (Y234E)/H240-Hl071/L73-k0 (antibody, human IgG1, kappa)
heavy 1: B3 heavy 1 with Y233E, A234Y
heavy 2: B3 heavy 2
light: B3 light
B5: H240-Kn061 (Y235I)/H240-Hl071/L73-k0 (antibody, human IgG1, kappa)
heavy 1: B3 heavy 1 with A234I
heavy 2: B3 heavy 2
light: B3 light
B6: H240-Kn061 (Y235P)/H240-Hl071/L73-k0 (antibody, human IgG1, kappa)
heavy 1: B3 heavy 1 with A234P
heavy 2: B3 heavy 2
light: B3 light
B7: H240-Kn061/H240-Hl071 (F241N)/L73-k0 (antibody, human IgG1, kappa)
heavy 1: B3 heavy 1 with A234Y
heavy 2: B3 heavy 2 with F240N
light: B3 light
B8: H240-Kn061/H240-Hl071 (V240H)/L73-k0 (antibody, human IgG1, kappa)
heavy 1: B3 heavy 1 with A234Y
heavy 2: B3 heavy 2 with V239H
light: B3 light
B9: H240-Kn061 (Y235Q)/H240-Hl071/L73-k0 (antibody, human IgG1, kappa)
heavy 1: B3 heavy 1 with A234Q
heavy 2: B3 heavy 2
light: B3 light
B10: H240-Kn061 (Y235V)/H240-Hl071/L73-k0 (antibody, human IgG1, kappa)
heavy 1: B3 heavy 1 with A234V
heavy 2: B3 heavy 2
light: B3 light

What follows are binders tested against T1, FcγRIa (human, UniProt P12314 16-292) (assay: SPR (Biacore); He/Con_1a (FcγRIa) divided by He/Con_2b (FcγRIIb)).
T1 construct: extracellular domain; also called FcgRI; 1a; not shown: His tag at the C terminus
T1 sequence (P12314 16-292): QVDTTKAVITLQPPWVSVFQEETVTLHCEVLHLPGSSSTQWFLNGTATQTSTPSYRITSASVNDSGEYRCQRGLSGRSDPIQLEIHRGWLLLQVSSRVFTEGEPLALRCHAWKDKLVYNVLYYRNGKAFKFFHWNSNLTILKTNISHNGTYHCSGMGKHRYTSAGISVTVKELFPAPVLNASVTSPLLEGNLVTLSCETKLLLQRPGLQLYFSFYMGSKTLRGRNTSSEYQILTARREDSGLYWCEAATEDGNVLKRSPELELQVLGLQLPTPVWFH

**Q.** With B1 as the binder, how does the “Ia/IIb He_1a/2b” value read?
**A.** 0.73 ratio

**Q.** With B2 as the binder, how does the “Ia/IIb He_1a/2b” value read?
**A.** 0.48 ratio

These binders were tested against T2, FcgRIIa R (human, UniProt P12318 34-217) (assay: SPR (Biacore); KD of H240-Kn061/H240-Hl071/L73-k0 divided by KD of the variant).
T2 construct: extracellular domain; also called FcγRIIa R; FcγRIIa type R; not shown: His tag attached to the C terminus
T2 sequence (looked up): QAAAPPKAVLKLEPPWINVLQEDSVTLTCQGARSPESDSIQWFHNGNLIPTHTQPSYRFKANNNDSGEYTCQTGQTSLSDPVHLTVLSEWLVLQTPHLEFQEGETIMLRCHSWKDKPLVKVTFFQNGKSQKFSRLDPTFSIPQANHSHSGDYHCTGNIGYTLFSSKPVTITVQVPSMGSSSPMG
Protocol: (§1) The antibodies were assessed for the binding to each FcgR. […] The resultant value was defined as relative KD, and used as an assessment indicator.
(§2) Analysis of interaction between obj ective antibody and the FcγR was carried out using Biacore T100 (GE Healthcare), Biacore T200, Biacore A100, and Biacore 4000. HBS-EP+ (GE Healthcare) was used as the running buffer, and the measurement temperature was set to 25° C. Chips produced by immobilizing the antigen peptide by the amine coupling method to a Series S sensor Chip CM5 (GE Healthcare), chips produced by allowing preliminarily biotinylated antigen peptides to interact with and immobilize onto a Series S Sensor Chip SA (certified) (GE Healthcare), chips produced by immobilizing Protein L (ACTIGEN, BioVision) to Series S Sencor Chip CM5 (GE Healthcare), or chips produced by immobilizing Protein A/G (Thermo Scientific) to Series S Sencor Chip CM5 (GE Healthcare) were used. Antibodies of interest were captured onto these chips, and allowed to interact to each FcγR diluted with running buffer.

**Q.** How did the “Relative KD” value turn out when B3 was run?
**A.** 0.5

**Q.** For B4, which “Relative KD” value is on record?
**A.** 1.4

**Q.** Which “Relative KD” value does the source give for B5 here?
**A.** 0.7

**Q.** For B6, which “Relative KD” value is on record?
**A.** 0.6

**Q.** With B7 as the binder, how does the “Relative KD” value read?
**A.** 3.8

**Q.** For B8, which “Relative KD” value is on record?
**A.** 0.7

**Q.** Which “Relative KD” value does the source give for B9 here?
**A.** 0.8

**Q.** Which “Relative KD” value does the source give for B10 here?
**A.** 0.5

The binders below were run against T3, FcgRIIa H (human, UniProt P12318 34-217) in the same assay as above.
T3 construct: extracellular domain; also called FcγRIIa H; FcγRIIa type H; not shown: His tag attached to the C terminus
T3 sequence (looked up): T2 sequence (looked up) with R134H
Protocol: as §1, §2

**Q.** For B3, which “Relative KD” value is on record?
**A.** 0.5

**Q.** How did the “Relative KD” value turn out when B4 was run?
**A.** 0.7

**Q.** For B5, which “Relative KD” value is on record?
**A.** 0.4

**Q.** For B6, which “Relative KD” value is on record?
**A.** 0.4

**Q.** B7 was tested. Which “Relative KD” value did it give?
**A.** 3.5

**Q.** For B8, which “Relative KD” value is on record?
**A.** 0.8

**Q.** Which “Relative KD” value does the source give for B9 here?
**A.** 0.4

**Q.** How did the “Relative KD” value turn out when B10 was run?
**A.** 0.4

These binders were tested against T4, FcgRIIb (human, UniProt P31994 43-217) in the same assay as above.
T4 construct: extracellular domain; also called FcγRIIb; not shown: His tag attached to the C terminus
T4 sequence (looked up): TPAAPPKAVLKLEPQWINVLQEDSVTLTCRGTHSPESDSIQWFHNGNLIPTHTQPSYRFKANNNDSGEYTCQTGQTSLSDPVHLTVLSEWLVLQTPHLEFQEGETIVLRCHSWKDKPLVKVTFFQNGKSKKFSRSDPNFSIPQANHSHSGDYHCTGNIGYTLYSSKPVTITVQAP
Protocol: as §1, §2

**Q.** For B3, which “Relative KD” value is on record?
**A.** 0.2

**Q.** Which “Relative KD” value does the source give for B4 here?
**A.** 0.5

**Q.** With B5 as the binder, how does the “Relative KD” value read?
**A.** 0.2

**Q.** How did the “Relative KD” value turn out when B6 was run?
**A.** 0.5

**Q.** How did the “Relative KD” value turn out when B7 was run?
**A.** 1.1

**Q.** How did the “Relative KD” value turn out when B8 was run?
**A.** 0.3

**Q.** B9 was tested. Which “Relative KD” value did it give?
**A.** 0.1

**Q.** B10 was tested. Which “Relative KD” value did it give?
**A.** 0.2

Each binder was assayed against T5, FcgRIIIa F (human, UniProt P08637 17-208) in the same assay as above.
T5 construct: extracellular domain; also called FcγRIIIa F; 3aF; not shown: His tag attached to the C terminus
Protocol: as §1, §2

T5 sequence (P08637 17-208): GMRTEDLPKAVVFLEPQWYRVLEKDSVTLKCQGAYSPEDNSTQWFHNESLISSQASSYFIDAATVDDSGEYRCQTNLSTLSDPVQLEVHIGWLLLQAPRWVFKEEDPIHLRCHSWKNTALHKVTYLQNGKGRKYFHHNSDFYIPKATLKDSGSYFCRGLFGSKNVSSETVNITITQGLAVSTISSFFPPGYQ

**Q.** For B3, which “Relative KD” value is on record?
**A.** 1.2

**Q.** With B4 as the binder, how does the “Relative KD” value read?
**A.** 1.9

**Q.** Which “Relative KD” value does the source give for B5 here?
**A.** 1.3

**Q.** With B6 as the binder, how does the “Relative KD” value read?
**A.** 1.1

**Q.** B7 was tested. Which “Relative KD” value did it give?
**A.** 0.8

**Q.** How did the “Relative KD” value turn out when B8 was run?
**A.** 1.3

**Q.** For B9, which “Relative KD” value is on record?
**A.** 1

**Q.** B10 was tested. Which “Relative KD” value did it give?
**A.** 1.2

The binders below were run against T6, FcgRIIIa V (human, UniProt P08637 17-208) in the same assay as above.
T6 construct: extracellular domain; also called FcγRIIIa V; not shown: His tag attached to the C terminus
Protocol: as §1, §2

T6 sequence (P08637 17-208 F176V limits assumed): as the sequence (P08637 17-208) above, with F160V counted along it

**Q.** Which “Relative KD” value does the source give for B3 here?
**A.** 1.3

**Q.** Which “Relative KD” value does the source give for B4 here?
**A.** 1.6

**Q.** For B5, which “Relative KD” value is on record?
**A.** 1.6

**Q.** Which “Relative KD” value does the source give for B6 here?
**A.** 1.5

**Q.** With B7 as the binder, how does the “Relative KD” value read?
**A.** 0.7

**Q.** B8 was tested. Which “Relative KD” value did it give?
**A.** 1

**Q.** For B9, which “Relative KD” value is on record?
**A.** 1.3

**Q.** With B10 as the binder, how does the “Relative KD” value read?
**A.** 1.3

Target: T4, FcgRIIb
Test: as above
Remark: another data set of the same source

**Q.** With B3 as the binder, how does the “Relative KD” value read?
**A.** 0.2

**Q.** How did the “Relative KD” value turn out when B4 was run?
**A.** 0.5

**Q.** Which “Relative KD” value does the source give for B5 here?
**A.** 0.2

**Q.** Which “Relative KD” value does the source give for B6 here?
**A.** 0.5

**Q.** Which “Relative KD” value does the source give for B9 here?
**A.** 0.1

**Q.** Which “Relative KD” value does the source give for B10 here?
**A.** 0.2

Target: T5, FcgRIIIa F
Test: as above
Remark: another data set of the same source

**Q.** For B3, which “Relative KD” value is on record?
**A.** 1.2

**Q.** For B4, which “Relative KD” value is on record?
**A.** 1.9

**Q.** For B5, which “Relative KD” value is on record?
**A.** 1.3

**Q.** How did the “Relative KD” value turn out when B6 was run?
**A.** 1.1

**Q.** Which “Relative KD” value does the source give for B9 here?
**A.** 1

**Q.** B10 was tested. Which “Relative KD” value did it give?
**A.** 1.2

Target: T6, FcgRIIIa V
Test: as above
Remark: another data set of the same source

**Q.** For B3, which “Relative KD” value is on record?
**A.** 1.3

**Q.** How did the “Relative KD” value turn out when B4 was run?
**A.** 1.6

**Q.** For B5, which “Relative KD” value is on record?
**A.** 1.6

**Q.** Which “Relative KD” value does the source give for B6 here?
**A.** 1.5

**Q.** How did the “Relative KD” value turn out when B9 was run?
**A.** 1.3

**Q.** B10 was tested. Which “Relative KD” value did it give?
**A.** 1.3

Each binder was assayed against T1, FcγRIa (assay: SPR (Biacore), antibody captured, FcγR as analyte; binding as % of GpH7-A5/GpH7-B3/GpL16-k0).

**Q.** B1 was tested. Which He/Con_1a did it give?
**A.** 102 % of control

**Q.** For B2, which He/Con_1a is on record?
**A.** 111 % of control

Each binder was assayed against T7, FcγRIIb (human, UniProt P31994 43-217) in the same assay as above.
T7 construct: extracellular domain; also called FcgRIIb; 2b; not shown: His tag at the C terminus
T7 sequence (looked up): T4 sequence (looked up)

**Q.** With B1 as the binder, how does the He/Con_2b read?
**A.** 139 % of control

**Q.** For B2, which He/Con_2b is on record?
**A.** 230 % of control
